B1: CaSLR1 SNBE1 mutant probe (dsDNA)
DNA 1: CTTTTGGATTTGTCTTGTAAGAAGATCAA
DNA 2: TTGATCTTCTTACAAGACAAATCCAAAAG
B2: CaSLR1 SNBE2 mutant probe (dsDNA)
DNA 1: GTTGTGTTTCTCTTTTATACGTTGGTCGT
DNA 2: ACGACCAACGTATAAAAGAGAAACACAAC
B3: CaSLR1 SNBE3 mutant probe (dsDNA)
DNA 1: TCTTAGTACTTATACCTCAAGGCGCAAGG
DNA 2: CCTTGCGCCTTGAGGTATAAGTACTAAGA

Molecular target: T1, CaNAC6 (GST-NAC6 fusion) (Capsicum annuum, UniProt A0A1U8EDX1 1-299)
T1 sequence: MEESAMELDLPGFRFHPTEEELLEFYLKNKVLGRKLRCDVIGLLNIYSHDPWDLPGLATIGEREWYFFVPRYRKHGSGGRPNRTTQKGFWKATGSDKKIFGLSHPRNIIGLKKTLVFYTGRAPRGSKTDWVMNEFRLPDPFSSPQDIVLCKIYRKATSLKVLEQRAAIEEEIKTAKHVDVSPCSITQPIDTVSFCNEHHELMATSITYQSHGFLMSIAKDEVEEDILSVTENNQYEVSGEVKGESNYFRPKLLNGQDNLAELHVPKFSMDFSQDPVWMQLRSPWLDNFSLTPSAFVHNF
Test: EMSA; LightShift chemiluminescence EMSA kit (Bes5003), 6% acrylamide gel; buffer, salt, pH and temperature not stated
Details: protein: recombinant; tags: GST; chain copies: 2; label: biotin

Binding result, no binding:
B1
B2
B3
